According to patent publication US20020012949A1, “Assay systems for leptin-enhancing agents” (priority 1997, published 2002):

Biological target: T1, OB-RY1141F (Homo sapiens, UniProt P48357, Y1141F)
T1 construct: cells transfected with the full-length OB-R constructs; expressed in transfected cells; host or cells: COS-7
T1 sequence (P48357 22-1165 Y1141F): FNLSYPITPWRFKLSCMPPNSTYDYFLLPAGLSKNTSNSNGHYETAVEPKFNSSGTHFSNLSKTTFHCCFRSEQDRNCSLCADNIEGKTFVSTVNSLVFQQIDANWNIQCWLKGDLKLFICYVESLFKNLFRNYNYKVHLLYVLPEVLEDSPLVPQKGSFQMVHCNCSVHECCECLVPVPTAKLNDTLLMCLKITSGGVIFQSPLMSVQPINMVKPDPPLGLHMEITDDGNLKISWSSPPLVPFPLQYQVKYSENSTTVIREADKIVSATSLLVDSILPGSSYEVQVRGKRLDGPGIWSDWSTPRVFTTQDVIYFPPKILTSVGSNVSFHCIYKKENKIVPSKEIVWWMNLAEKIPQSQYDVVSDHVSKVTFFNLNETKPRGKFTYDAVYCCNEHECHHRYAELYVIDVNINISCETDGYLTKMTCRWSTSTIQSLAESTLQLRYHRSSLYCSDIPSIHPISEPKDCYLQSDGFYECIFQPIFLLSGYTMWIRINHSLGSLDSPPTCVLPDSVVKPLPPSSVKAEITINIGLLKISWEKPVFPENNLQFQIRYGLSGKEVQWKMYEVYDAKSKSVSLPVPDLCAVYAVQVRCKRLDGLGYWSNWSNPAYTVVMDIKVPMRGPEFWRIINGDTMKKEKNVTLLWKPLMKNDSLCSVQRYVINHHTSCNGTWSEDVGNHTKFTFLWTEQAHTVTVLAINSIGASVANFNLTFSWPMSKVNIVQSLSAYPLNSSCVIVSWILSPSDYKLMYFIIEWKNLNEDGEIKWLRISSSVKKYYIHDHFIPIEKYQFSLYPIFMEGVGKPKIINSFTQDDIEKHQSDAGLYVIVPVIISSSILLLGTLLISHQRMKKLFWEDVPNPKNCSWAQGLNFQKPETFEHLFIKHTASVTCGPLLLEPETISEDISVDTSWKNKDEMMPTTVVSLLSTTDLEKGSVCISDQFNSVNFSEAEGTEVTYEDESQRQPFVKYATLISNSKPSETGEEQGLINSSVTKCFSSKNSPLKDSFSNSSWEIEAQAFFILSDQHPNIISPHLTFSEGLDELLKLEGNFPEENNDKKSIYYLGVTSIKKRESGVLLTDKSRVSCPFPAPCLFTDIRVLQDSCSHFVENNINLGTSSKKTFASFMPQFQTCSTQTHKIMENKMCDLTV
Assay: Luciferase reporter gene assay (3(G3)-Cy6-LUC), leptin stimulation of COS cells expressing mutant OB-RY1141F
Type: cell-based
Conditions: mutant construct OB-RY1141F, 100 ng/ml leptin for 24 hours
Description: The cytoplasmic domain and full-length human OB-R was cloned by PCR using human fetal liver and adipocyte cDNA (Clontech) and cloned into the expression vectors pCMX and pMT21. Chimeric receptors were constructed by fusing the extracellular domain and transmembrane domain of TrkC (amino acids 1 to 458) to the cytoplasmic domain of OB-R (amino acids 865-1165). A triple myc epitope tag was added at the C-terminus of all OB-R constructs (18). Truncation and point mutant constructs were generated by PCR and the sequences of all constructs were verified. Expression constructs were transfected into COS-7 cells using lipofectamine (GIBCO-BRL); 36-48 hours after transfection, cells were starved for either 2 hour,s for chimeric receptors or overnight for full-length receptors prior to stimulation.
Expression constructs (1 μg) for OB-R, OB-RY1141F, OB-RY986F, OB-RY1078, 1079F, and OB-RY986, 1141F were co-transfected with 1 μg of 3(G3)-Cy6-LUC and 0.1 μg of pCMX.LacZ into COS-7 cells (6-well dishes) using lipofectamine. The day after transfection, media was changed to serum-free OptiMEM (GIBCO-BRL) and then treated with 100 ng/ml murine leptin (PeproTech) or human leptin (R&D Systems) for 24 hours. […] Luciferase and β-galactosidase activities were measured in cell lysates (30) and luciferase activity was normalized to β-galactosidase activity to control for transfection differences. […]

## leptin: the product of the obese gene, secreted by adipocytes; ligand of OB-R
  induction of luciferase activity: no induction
